Data on two molecules can be found in patent publication US20150359849A1, “METHODS OF INCREASING NEURONAL CONNECTIVITY AND/OR TREATING A NEURODEGENERATIVE CONDITION” (PRESIDENT AND FELLOWS OF HARVARD COLLEGE, priority 2013, published 2015).

What all share (type): cell-based
In one assay the test system is osteocrin expression. Nature of the assay: induction of osteocrin expression in human cultures. To be noted: addition to human cultures.
Assay [1] deals with human primary neuronal cultures. In words: neuronal connectivity assay: human primary neuronal cultures fixed and stained for dendritic and synaptic markers. The method, then: FIGS. 3A-3E are experimental data showing that osteocrin promotes human neuronal connectivity. FIGS. 3A-3D are fluorescent images of primary human neurons fixed and immunostained with neuronal and synaptic markers, e.g., microtubule-associated protein 2 (MAP2), postsynaptic density protein-95 (PSD95) and synapsin after cultured for about 10 days in vitro with and without recombinant OSTN (˜50 ng/mL). […] FIG. 3E is a bar graph showing quantification results of excitatory synapse number in human neuronal cultures with increasing concentrations (˜0.5-˜50 ng/mL) of recombinant OSTN. In particular, the human neuronal cultures were treated with recombinant OSTN at a concentration of ˜0.5 ng/mL, ˜5 ng/mL, or ˜50 ng/mL. The data are represented as mean±SEM from n=5.
No role has previously been described for OSTN in nervous system development or particularly human nervous system development; however, OSTN has been reported to be secreted from bone-forming cells to promote the proliferation of bone precursors. In order to assess the roles of OSTN in human neuronal function, human primary neuronal cultures were treated with increasing concentrations of an osteocrin-inducing agent, e.g., but not limited to, a recombinant human OSTN protein. After about 6 days, samples were fixed and stained for neuronal markers, e.g., dendritic and/or synaptic markers, to examine effects on neuronal connectivity (FIGS. 3A-3D). Neuronal excitatory synaptic connections can be assayed by any methods known in the art, e.g., by quantifying the density of closely apposed puncta labeling pre- and post-synaptic markers along neuronal dendrites.

Another assay concerns human neurons. Nature of the assay: neuronal survival assay: number of MAP2 positive cells. Particulars: about 80,000 to about 130,000 cells/cm^2, where neighboring neurons could provide trophic support. The method, then:
FIGS. 4A-4C are experimental data showing that osteocrin promotes human neuronal survival. FIGS. 4A-4B are fluorescent images showing culture of primary human neurons with or without recombinant OSTN. In FIGS. 4A-4B, primary human neurons were cultured for 10 days in vitro with and without recombinant OSTN (˜50 ng/ml), fixed and immunostained with neuronal marker MAP2 and nuclear marker DAPI. FIG. 4C is a quantitative bar graph showing the number of MAP2 positive neurons per measured area at DIV10 in human neuronal cultures with or without recombinant OSTN. The data are represented as mean±SEM. As used herein throughout the specification, the abbreviation “DIV” stands for Day In Vitro, i.e., the number of days neurons have grown in culture.
As presented herein, the inventors discovered OSTN as a human-specific activity-regulated secreted molecule. […] Neurons were grown, e.g., at a density of about 40,000 cells/cm^2, in the presence or absence of OSTN (e.g., ˜50 ng/ml) for a period of time, e.g., about 6 days between DIV4 to DIV10. After the period of time (e.g., about 6 days), samples were fixed and stained for dendritic and/or nuclear markers (FIGS. 4A-4B). Neuronal survival was assayed, for example, by quantifying the number of MAP2 positive cells after the neurons were cultured with or without OSTN for a pre-determined period of time (e.g., detected at DIV10). […]

Another assay has as its system primary human neurons. In words: human axonal growth assay in microfluidic chambers. The method, then:
FIGS. 5A-5G are experimental data showing that osteocrin promotes human axonal growth. FIG. 5A is a schematic diagram of microfluidic chambers, e.g., for use in a human axonal growth assay. The bracket denotes the area where images were approximately acquired. In FIGS. 5B-5E, primary human neurons were cultured for 21 days in vitro in the microfluidic chamber with (FIG. 5C and FIG. 5E) and without (FIG. 5B and FIG. 5D) recombinant OSTN (˜100 ng/ml). FIGS. 5B-5C are brightfield images of axons imaged live by a bright-field microscope. FIGS. 5D-5E are fluorescent images of axons fixed and immunostained with axonal marker Neurofilament (NF). FIG. 5F is a quantitative bar graph showing axonal length extension of OSTN-treated neurons, normalized to the control experiment. FIG. 5G is a quantitative bar graph showing the number of MAP2-positive neurons per measured area inside the chamber. The data are represented as mean±SEM.
To assess the effect of OSTN on axonal outgrowth, a human axonal growth assay was developed by using microfluidic chambers (e.g., obtained from Xona Microfluidics, Temecula, Calif.) (FIG. 5A). In this assay, primary human neurons were seeded in the presence or absence of OSTN into the microfluidic chambers and cultured for a sufficient period of time to allow their axons grow through microchannels that were designed to be small enough to only allow axons, not dendrites, to pass through. For example, after about 21 days, axons were imaged both live (FIGS. 5B-5C) and after stained with an axonal marker, e.g., an anti-neurofilament antibody (FIGS. 5D-5E). Human axons grew slowly in the absence of OSTN and at DIV21 only few axonal processes were visible (FIGS. 5B and 5D). […] These findings shown that human-specific activity-regulated factor OSTN is a regulator of the axonal growth in human neurons.

Setting [2] is: recombinant OSTN ~50 ng/mL, about 10 days in vitro.

B1: BDNF: a neuronal activity-regulated secreted factor (protein, UniProt P23560 19-247, looked up)
Neurotrophic factor BDNF …: APMKEANIRGQGGLAYPGVRTHGTLESVNGPKAGSRGLTSLADTFEHVIEELLDEDQKVRPNEENNKDADLYTSRVMLSSQVPLEPPLLFLLEEYKNYLDAANMSMRVRRHSDPARRGELSVCDSISEWVTAADKKTAVDMSGGTVTVLEKVPVSKGQLKQYFYETKCNPMGYTKEGCRGIDKRHWNSQCRTTQSYVRALTMDSKKRIGWRFIRIDTSCVCTLTIKRGR
Regarding B1, the “effect on induction of osteocrin expression” value in the assay with osteocrin expression is on record as “does not have any significant effect”.

B2: OSTN: recombinant human osteocrin protein; a secreted protein produced by cells of the osteoblast lineage (protein, listed as Homo sapiens)
chain: MLDWRLASAHFILAVTLTLWSSGKVLSVDVTTTEAFDSGVIDVQSTPTVREEKSATDLTAKLLLLDELVSLENDVIETKKKRSFSGFGSPLDRLSAGSVDHKGKQRKVVDHPKRRFGIPMDRIGRNRLSNSRG
Turning to B2, in assay [1] (data not shown), the “dendritic density following OSTN treatment” value is listed as “Increases were also observed” and the “total dendritic length following OSTN treatment” value is “Increases were also observed”. Moreover, in assay [1] (setting [2]), the “expression of PSD95 and synapsin (immunostaining) compared to control neurons” value was “expressed higher levels of PSD95 and synapsins”; the “network of microtubules (MAP2 immunostaining) compared to control neurons” value is listed as “formed a denser network of microtubules”. For the same molecule, the “increase in excitatory synapse density as compared to mock-treated controls” value in assay [1] (recombinant human OSTN protein, increasing concentrations (~0.5-~50 ng/mL), after about 6 days, closely apposed pre- and post-synaptic puncta along dendrites) is recorded as “at least 3 fold”. In addition, the “significant increase in neuronal survival at standard or higher densities” value in the assay with human neurons was “not observed”. Further, the “number of neuronal cells (MAP2-positive) in the chambers with OSTN treatment” value with primary human neurons (recombinant OSTN ~100 ng/ml, DIV21) is recorded as “did not appear to change”. In the assay on primary human neurons (recombinant OSTN ~100 ng/ml, about 21 days in vitro, imaged live and neurofilament stained), the “axonal growth in the presence of OSTN” value is “neurons grow axons of dramatic lengths and complexities”. The “increase in axonal growth of human neurons as compared to neural cells without treatment of OSTN” value in the assay on primary human neurons (summary statement in the description) is “at least 2 fold”.
